Assay results taken from patent publication US20180305452A1.

Experiments:
Test in all cases: flow cytometry, protein L-biotin then streptavidin-PE on LV-transduced human primary T cells
[1] = target: CAR19 construct 1713 (LTG1713): SP-CD19binder-Truncated TNFRSF19link-TNFRSF19tm-signaling
Target sequence (chain, as listed by the source): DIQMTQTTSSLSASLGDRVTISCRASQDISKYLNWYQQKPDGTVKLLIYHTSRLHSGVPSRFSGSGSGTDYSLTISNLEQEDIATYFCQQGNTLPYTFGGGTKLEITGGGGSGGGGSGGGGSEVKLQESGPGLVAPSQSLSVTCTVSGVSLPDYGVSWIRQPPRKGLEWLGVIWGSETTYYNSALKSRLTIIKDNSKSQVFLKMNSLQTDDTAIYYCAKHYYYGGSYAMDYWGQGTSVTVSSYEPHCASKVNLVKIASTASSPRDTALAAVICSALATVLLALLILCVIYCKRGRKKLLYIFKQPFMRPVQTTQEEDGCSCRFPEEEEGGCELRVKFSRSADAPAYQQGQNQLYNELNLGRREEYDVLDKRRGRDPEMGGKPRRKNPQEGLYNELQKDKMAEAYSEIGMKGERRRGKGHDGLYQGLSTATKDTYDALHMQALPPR

[2] = target: CAR19 construct 1494 (LTG1494): SP-CD19binder-CD8link-CD8tm-signaling
Target sequence (chain, as listed by the source): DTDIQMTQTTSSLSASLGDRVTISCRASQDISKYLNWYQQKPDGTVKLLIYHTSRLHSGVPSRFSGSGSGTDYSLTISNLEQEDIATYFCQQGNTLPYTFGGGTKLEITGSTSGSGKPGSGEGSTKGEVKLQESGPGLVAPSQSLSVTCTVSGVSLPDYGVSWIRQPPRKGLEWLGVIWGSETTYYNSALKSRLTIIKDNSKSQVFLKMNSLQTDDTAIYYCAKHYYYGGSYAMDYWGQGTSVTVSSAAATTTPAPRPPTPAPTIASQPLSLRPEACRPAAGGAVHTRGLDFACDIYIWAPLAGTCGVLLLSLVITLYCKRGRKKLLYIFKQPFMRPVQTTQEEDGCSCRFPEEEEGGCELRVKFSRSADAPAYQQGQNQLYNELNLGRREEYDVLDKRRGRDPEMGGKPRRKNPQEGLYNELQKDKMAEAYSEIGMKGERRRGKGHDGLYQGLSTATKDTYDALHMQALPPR

[3] = target: CAR19 construct 1712 (LTG1712): SP-CD19binder-TNFRSF16link-TNFRSF16tm-signaling
Target sequence (chain, as listed by the source): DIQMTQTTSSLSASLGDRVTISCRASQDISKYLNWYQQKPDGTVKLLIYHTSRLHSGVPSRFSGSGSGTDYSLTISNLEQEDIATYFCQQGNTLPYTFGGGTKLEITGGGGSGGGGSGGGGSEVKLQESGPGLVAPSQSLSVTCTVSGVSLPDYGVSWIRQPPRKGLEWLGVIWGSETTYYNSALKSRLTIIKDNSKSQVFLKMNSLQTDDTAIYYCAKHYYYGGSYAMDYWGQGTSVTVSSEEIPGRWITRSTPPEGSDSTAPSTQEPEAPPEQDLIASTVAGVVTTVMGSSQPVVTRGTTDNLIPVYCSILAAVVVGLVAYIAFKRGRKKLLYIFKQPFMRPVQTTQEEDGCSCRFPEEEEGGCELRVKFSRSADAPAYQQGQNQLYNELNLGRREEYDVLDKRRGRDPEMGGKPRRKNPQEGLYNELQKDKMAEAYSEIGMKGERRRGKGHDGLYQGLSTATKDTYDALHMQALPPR

percentage CAR on T cell surface (cells stained) [1]: 0.3%
percentage CAR on T cell surface (cells stained) [2]: 90.4%
percentage CAR on T cell surface (cells stained) [3]: 86.4%
Substance: protein L-biotin conjugate
